Results as given in paper PMC6555819, “Comprehensive study of nuclear receptor DNA binding provides a revised framework for understanding receptor specificity”.

B1: NRC3_wobSeed66_DR2_A6T_o1 (dsDNA)
DNA 1: GCAATTCAGGGTCACTAGGCCAGAGTAGGTACGAATGCGATTGACAGCGTAGAATGAAGG
DNA 2: CCTTCATTCTACGCTGTCAATCGCATTCGTACCTACTCTGGCCTAGTGACCCTGAATTGC
B2: NRC3_wobSeed53_DR2_G9A_o1 (dsDNA)
DNA 1: GCCCTTACAGGTCACGAGGTTATAGCACGACGAGCGGCGATTGACAGCGTAGAATGAAGG
DNA 2: CCTTCATTCTACGCTGTCAATCGCCGCTCGTCGTGCTATAACCTCGTGACCTGTAAGGGC
B3: NRC3_wobSeed33_DR1_T4G_o1 (dsDNA)
DNA 1: GCAGCTCTAGGTAAAAGTTCAGTGAATCCCGAGGATGCGATTGACAGCGTAGAATGAAGG
DNA 2: CCTTCATTCTACGCTGTCAATCGCATCCTCGGGATTCACTGAACTTTTACCTAGAGCTGC
B4: NRC3_wobSeed28_DR1_T26C_o1 (dsDNA)
DNA 1: GCCCTACTGGGCCAAAGGTCATTGACTCCAATGCTCGCGATTGACAGCGTAGAATGAAGG
DNA 2: CCTTCATTCTACGCTGTCAATCGCGAGCATTGGAGTCAATGACCTTTGGCCCAGTAGGGC
B5: NRC3_wobSeed28_DR1_C12G_o1 (dsDNA)
DNA 1: GCCCTACTGGGGCAAAGGTCATTGATTCCAATGCTCGCGATTGACAGCGTAGAATGAAGG
DNA 2: CCTTCATTCTACGCTGTCAATCGCGAGCATTGGAATCAATGACCTTTGCCCCAGTAGGGC
B6: NRC3_wobSeed134_DR5_A30G_o1 (dsDNA)
DNA 1: GCGCTGCTAGGTCAACTGATGGTCAGCTAGAGCTCGGCGATTGACAGCGTAGAATGAAGG
DNA 2: CCTTCATTCTACGCTGTCAATCGCCGAGCTCTAGCTGACCATCAGTTGACCTAGCAGCGC
B7: NRC3_wobSeed36_DR1_G9T_o1 (dsDNA)
DNA 1: GCCCGACTTGGGCAAAGGTTACCATACTCAGTACGAGCGATTGACAGCGTAGAATGAAGG
DNA 2: CCTTCATTCTACGCTGTCAATCGCTCGTACTGAGTATGGTAACCTTTGCCCAAGTCGGGC
B8: NRC3_wobSeed41_DR1_T4A_o1 (dsDNA)
DNA 1: GCAAATGTAGGTTAAGGGTCATTCAGGTTGGTTCGCGCGATTGACAGCGTAGAATGAAGG
DNA 2: CCTTCATTCTACGCTGTCAATCGCGCGAACCAACCTGAATGACCCTTAACCTACATTTGC
B9: NRC3_wobSeed31_DR1_A15T_o1 (dsDNA)
DNA 1: GCTCATATAGGTAATAGGTGAAAGTCGGTGTGGTAAGCGATTGACAGCGTAGAATGAAGG
DNA 2: CCTTCATTCTACGCTGTCAATCGCTTACCACACCGACTTTCACCTATTACCTATATGAGC
B10: NRC3_wobSeed136_DR5_A30G_o1 (dsDNA)
DNA 1: GCTAGCCTAGGTCATTCAGGGGCCAGTATGGAAAGCGCGATTGACAGCGTAGAATGAAGG
DNA 2: CCTTCATTCTACGCTGTCAATCGCGCTTTCCATACTGGCCCCTGAATGACCTAGGCTAGC
B11: NRC3_wobSeed136_DR5_C24T_o1 (dsDNA)
DNA 1: GCTAGCCTAGGTCATTCAGGGGCTAGTATAGAAAGCGCGATTGACAGCGTAGAATGAAGG
DNA 2: CCTTCATTCTACGCTGTCAATCGCGCTTTCTATACTAGCCCCTGAATGACCTAGGCTAGC
B12: NRC3_wobSeed125_DR5_C15G_o1 (dsDNA)
DNA 1: GCCCTTACGGGTCAGTGACAGGTTATAGCATTTGGAGCGATTGACAGCGTAGAATGAAGG
DNA 2: CCTTCATTCTACGCTGTCAATCGCTCCAAATGCTATAACCTGTCACTGACCCGTAAGGGC
B13: NRC3_wobSeed116_DR4_A18G_o1 (dsDNA)
DNA 1: GCAGAATGAGGTTACCAGAGATCAGGGAAACGCTTGGCGATTGACAGCGTAGAATGAAGG
DNA 2: CCTTCATTCTACGCTGTCAATCGCCAAGCGTTTCCCTGATCTCTGGTAACCTCATTCTGC
B14: NRC3_wobSeed116_DR4_C15A_o1 (dsDNA)
DNA 1: GCAGAATGAGGTTAACAAAGATCAGGGAAACGCTTGGCGATTGACAGCGTAGAATGAAGG
DNA 2: CCTTCATTCTACGCTGTCAATCGCCAAGCGTTTCCCTGATCTTTGTTAACCTCATTCTGC
B15: NRC3_wobSeed44_DR1_A6C_o1 (dsDNA)
DNA 1: GCTGACTGAGGTTAAAGATCAGGGAACGTGGCGTCGGCGATTGACAGCGTAGAATGAAGG
DNA 2: CCTTCATTCTACGCTGTCAATCGCCGACGCCACGTTCCCTGATCTTTAACCTCAGTCAGC
B16: NRC3_wobSeed141_DR5_G16C_o1 (dsDNA)
DNA 1: GCAGTCAAAGTTCAGCACGAGGTAACGTAAAGCACGGCGATTGACAGCGTAGAATGAAGG
DNA 2: CCTTCATTCTACGCTGTCAATCGCCGTGCTTTACGTTACCTCGTGCTGAACTTTGACTGC
B17: NRC3_wobSeed65_DR2_A5C_o1 (dsDNA)
DNA 1: GCATCTGTAGGTTATCGGGTCATTCAGTTTGCGCATGCGATTGACAGCGTAGAATGAAGG
DNA 2: CCTTCATTCTACGCTGTCAATCGCATGCGCAAACTGAATGACCCGATAACCTACAGATGC
B18: NRC3_wobSeed120_DR4_G5C_o1 (dsDNA)
DNA 1: GCCCCAGTAGGTTACGAGGGGGCATTCAGTGCGAATGCGATTGACAGCGTAGAATGAAGG
DNA 2: CCTTCATTCTACGCTGTCAATCGCATTCGCACTGAATGCCCCCTCGTAACCTACTGGGGC
B19: NRC3_wobSeed124_DR5_A29T_o1 (dsDNA)
DNA 1: GCCCTACTGGGCCATTCAGAGGTCATTGTTCATATGGCGATTGACAGCGTAGAATGAAGG
DNA 2: CCTTCATTCTACGCTGTCAATCGCCATATGAACAATGACCTCTGAATGGCCCAGTAGGGC
B20: NRC3_wobSeed124_DR5_C17G_o1 (dsDNA)
DNA 1: GCCCTACTGGGCCATTGAGAGGTCATTGATCATATGGCGATTGACAGCGTAGAATGAAGG
DNA 2: CCTTCATTCTACGCTGTCAATCGCCATATGATCAATGACCTCTCAATGGCCCAGTAGGGC
B21: NRC3_wobSeed64_DR2_G19A_o1 (dsDNA)
DNA 1: GCTAGCCTAGGTCATTGGACCAGTATAGTACGCATCGCGATTGACAGCGTAGAATGAAGG
DNA 2: CCTTCATTCTACGCTGTCAATCGCGATGCGTACTATACTGGTCCAATGACCTAGGCTAGC
B22: NRC3_wobSeed77_DR3_A18G_o1 (dsDNA)
DNA 1: GCACTTACGGGTCAACGGGGTTATAGCACGCGTATAGCGATTGACAGCGTAGAATGAAGG
DNA 2: CCTTCATTCTACGCTGTCAATCGCTATACGCGTGCTATAACCCCGTTGACCCGTAAGTGC
B23: NRC3_wobSeed25_DR1_A5T_o1 (dsDNA)
DNA 1: GCCATACTAGGTCAAAGGTCAAAGTCGAGCCAACCAGCGATTGACAGCGTAGAATGAAGG
DNA 2: CCTTCATTCTACGCTGTCAATCGCTGGTTGGCTCGACTTTGACCTTTGACCTAGTATGGC
B24: NRC3_wobSeed25_DR1_G24A_o1 (dsDNA)
DNA 1: GCCAAACTAGGTCAAAGGTCAAAATCGAGCCAACCAGCGATTGACAGCGTAGAATGAAGG
DNA 2: CCTTCATTCTACGCTGTCAATCGCTGGTTGGCTCGATTTTGACCTTTGACCTAGTTTGGC
B25: NRC3_wobSeed25_DR1_A6T_o1 (dsDNA)
DNA 1: GCCAATCTAGGTCAAAGGTCAAAGTCGAGCCAACCAGCGATTGACAGCGTAGAATGAAGG
DNA 2: CCTTCATTCTACGCTGTCAATCGCTGGTTGGCTCGACTTTGACCTTTGACCTAGATTGGC
B26: NRC3_wobSeed29_DR1_G24A_o1 (dsDNA)
DNA 1: GCGCTTACGGGTCAAAGGTTATAACATGAATAGAATGCGATTGACAGCGTAGAATGAAGG
DNA 2: CCTTCATTCTACGCTGTCAATCGCATTCTATTCATGTTATAACCTTTGACCCGTAAGCGC
B27: NRC3_wobSeed29_DR1_C4A_o1 (dsDNA)
DNA 1: GCGATTACGGGTCAAAGGTTATAGCATGAATAGAATGCGATTGACAGCGTAGAATGAAGG
DNA 2: CCTTCATTCTACGCTGTCAATCGCATTCTATTCATGCTATAACCTTTGACCCGTAATCGC
B28: NRC3_wobSeed40_DR1_G16A_o1 (dsDNA)
DNA 1: GCTAGCCTAGGTCATAGGCCAGTATACCACGCGAACGCGATTGACAGCGTAGAATGAAGG
DNA 2: CCTTCATTCTACGCTGTCAATCGCGTTCGCGTGGTATACTGGCCTATGACCTAGGCTAGC
B29: NRC3_wobSeed76_DR3_A16C_o1 (dsDNA)
DNA 1: GCCCTACTGGGCCAACAAGGTCATTGATGCCGATAAGCGATTGACAGCGTAGAATGAAGG
DNA 2: CCTTCATTCTACGCTGTCAATCGCTTATCGGCATCAATGACCTTGTTGGCCCAGTAGGGC
B30: NRC3_wobSeed97_DR4_G27T_o1 (dsDNA)
DNA 1: GCCAAACTAGGTCACGAAAGGTCAAATTCGAATGACGCGATTGACAGCGTAGAATGAAGG
DNA 2: CCTTCATTCTACGCTGTCAATCGCGTCATTCGAATTTGACCTTTCGTGACCTAGTTTGGC
B31: NRC3_wobSeed97_DR4_C29G_o1 (dsDNA)
DNA 1: GCCAAACTAGGTCACGAAAGGTCAAAGTGGAATGACGCGATTGACAGCGTAGAATGAAGG
DNA 2: CCTTCATTCTACGCTGTCAATCGCGTCATTCCACTTTGACCTTTCGTGACCTAGTTTGGC
B32: NRC3_wobSeed30_DR1_T5C_o1 (dsDNA)
DNA 1: GCACCAGCAGGCCAAGGGTCACTCAAGATTAGTCCGGCGATTGACAGCGTAGAATGAAGG
DNA 2: CCTTCATTCTACGCTGTCAATCGCCGGACTAATCTTGAGTGACCCTTGGCCTGCTGGTGC
B33: NRC3_wobSeed121_DR5_A26T_o1 (dsDNA)
DNA 1: GCCAAACTAGGTCACCGGAAGGTCATAGTCCGCATGGCGATTGACAGCGTAGAATGAAGG
DNA 2: CCTTCATTCTACGCTGTCAATCGCCATGCGGACTATGACCTTCCGGTGACCTAGTTTGGC

target: PPARa:RXRa (Homo sapiens, UniProt Q07869;P19793 full;full); test: no ligand; PBM; 270 nM : 90 nM RXRa; PBS pH 7.4, 2% milk, 0.02% Triton X-100, 1 mM DTT, BSA, 0.4 mg/ml salmon testes DNA; conditions: tags: GST kept;His cleaved; copies: 1;1; label: surface-attached array probe
Procedure, shortened: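 Ligand-free nuclear receptor dimers were applied to custom Agilent 4×180K protein-binding microarrays whose double-stranded probes carried direct-repeat seeds, single-nucleotide variants, half-site ablations and random human genomic background sequences in 34-nt variable regions. Incubation lasted 1 h. Binding z-scores were computed against the random background probes from regression-normalized fluorescence.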

Chain of PPARa:RXRa (Q07869 whole entry, chain 1 of 2): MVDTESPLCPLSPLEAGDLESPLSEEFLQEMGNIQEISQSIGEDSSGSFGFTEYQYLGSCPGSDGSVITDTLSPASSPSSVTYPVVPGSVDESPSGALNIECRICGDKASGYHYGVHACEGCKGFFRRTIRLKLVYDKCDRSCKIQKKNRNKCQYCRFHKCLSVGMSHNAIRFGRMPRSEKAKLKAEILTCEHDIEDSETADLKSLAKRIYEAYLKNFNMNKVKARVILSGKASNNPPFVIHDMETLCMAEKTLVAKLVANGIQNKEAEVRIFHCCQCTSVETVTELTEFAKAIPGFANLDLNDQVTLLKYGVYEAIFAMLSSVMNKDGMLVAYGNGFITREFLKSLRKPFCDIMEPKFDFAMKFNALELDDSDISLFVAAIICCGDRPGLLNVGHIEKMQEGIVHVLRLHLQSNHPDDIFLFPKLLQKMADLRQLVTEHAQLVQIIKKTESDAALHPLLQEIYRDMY
Chain of PPARa:RXRa (P19793 whole entry, chain 2 of 2): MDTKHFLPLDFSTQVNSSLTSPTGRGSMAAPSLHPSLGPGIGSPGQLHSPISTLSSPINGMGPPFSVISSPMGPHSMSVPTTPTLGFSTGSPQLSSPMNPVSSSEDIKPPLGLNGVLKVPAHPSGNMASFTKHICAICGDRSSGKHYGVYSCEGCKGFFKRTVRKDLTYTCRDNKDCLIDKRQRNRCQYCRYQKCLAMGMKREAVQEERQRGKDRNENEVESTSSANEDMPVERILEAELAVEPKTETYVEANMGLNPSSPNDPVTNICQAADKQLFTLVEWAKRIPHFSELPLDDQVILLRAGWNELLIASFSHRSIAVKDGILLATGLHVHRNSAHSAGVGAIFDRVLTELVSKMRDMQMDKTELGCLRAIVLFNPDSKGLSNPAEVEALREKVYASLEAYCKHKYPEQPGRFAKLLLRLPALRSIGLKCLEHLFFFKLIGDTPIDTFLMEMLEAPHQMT

First: B1
Second: B2
The binding signal of the first is lower: 6.63 PBM z-score against 500 random probes for the first, 6.65 PBM z-score against 500 random probes for the second.

Going from B3 to B4, the binding signal rises from 3.86 PBM z-score against 500 random probes to 6.99 PBM z-score against 500 random probes.

First: B5
Second: B6
The binding signal of the first is higher: 6.86 PBM z-score against 500 random probes for the first, 3.59 PBM z-score against 500 random probes for the second.

First: B7
Second: B8
The binding signal of the first is lower: 3.64 PBM z-score against 500 random probes for the first, 6.91 PBM z-score against 500 random probes for the second.

Going from B9 to B10, the binding signal falls from 3.69 PBM z-score against 500 random probes to 3.67 PBM z-score against 500 random probes.

Compared with B11, B12 is higher in binding signal: 3.65 PBM z-score against 500 random probes for the first, 3.89 PBM z-score against 500 random probes for the second.

First: B13
Second: B14
The binding signal of the first is higher: 3.63 PBM z-score against 500 random probes for the first, 3.61 PBM z-score against 500 random probes for the second.

Compared with B15, B16 is lower in binding signal: 3.82 PBM z-score against 500 random probes for the first, 3.7 PBM z-score against 500 random probes for the second.

Going from B17 to B18, the binding signal falls from 3.8 PBM z-score against 500 random probes to 3.76 PBM z-score against 500 random probes.

Compared with B19, B20 is lower in binding signal: 3.73 PBM z-score against 500 random probes for the first, 3.57 PBM z-score against 500 random probes for the second.

First: B21
Second: B22
The binding signal of the first is lower: 3.84 PBM z-score against 500 random probes for the first, 6.51 PBM z-score against 500 random probes for the second.

First: B23
Second: B24
The binding signal of the first is higher: 8.27 PBM z-score against 500 random probes for the first, 8.04 PBM z-score against 500 random probes for the second.

Going from B25 to B26, the binding signal falls from 8.22 PBM z-score against 500 random probes to 7.28 PBM z-score against 500 random probes.

Going from B27 to B28, the binding signal falls from 7.27 PBM z-score against 500 random probes to 3.72 PBM z-score against 500 random probes.

Going from B29 to B30, the binding signal rises from 3.78 PBM z-score against 500 random probes to 7.06 PBM z-score against 500 random probes.

Compared with B31, B32 is lower in binding signal: 6.97 PBM z-score against 500 random probes for the first, 3.87 PBM z-score against 500 random probes for the second.

In the case of B33, the binding signal is reported as 6.6 PBM z-score against 500 random probes.
